Target: HMG1 purified from calf (bovine) thymus (calf (bovine)) (UniProt P10103)
Experiment: cell-based or functional assay

HMG1 purified from calf (bovine) thymus (calf (bovine)), sequence (P10103 2-215 limits assumed): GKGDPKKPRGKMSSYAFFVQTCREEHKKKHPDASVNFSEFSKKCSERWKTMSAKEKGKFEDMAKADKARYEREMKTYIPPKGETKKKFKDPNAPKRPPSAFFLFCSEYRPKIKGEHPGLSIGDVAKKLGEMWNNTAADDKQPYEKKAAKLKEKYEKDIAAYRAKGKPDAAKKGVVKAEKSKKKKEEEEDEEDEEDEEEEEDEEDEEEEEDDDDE

IFN-a release from mouse bone marrow cells treated with CpG-A and thymus HMG1: > 95%
Substance: RAGE-Fc fusion protein
